The source of these data is US20160194639.

The target in this data set is α2-antiplasmin.

B1: endogenous plasmin of mouse brain slices (protein)
chain: VYLSECKTGIGNGYRGTMSRTKSGVACQKWGATFPHVPNYSPSTHPNEGLEENYCRNPDNDEQGPWCYTTDPDKRYDYCNIPECEEECMYCSGEKYEGKISKTMSGLDCQAWDSQSPHAHGYIPAKFPSKNLKMNYCRNPDGEPRPWCFTTDPTKRWEYCDIPRCTTPPPPPSPTYQCLKGRGENYRGTVSVTVSGKTCQRWSEQTPHRHNRTPENFPCKNLEENYCRNPDGETAPWCYTTDSQLRWEYCEIPSCESSASPDQSDSSVPPEEQTPVVQECYQSDGQSYRGTSSTTITGKKCQSWAAMFPHRHSKTPENFPDAGLEMNYCRNPDGDKGPWCYTTDPSVRWEYCNLKRCSETGGSVVELPTVSQEPSGPSDSETDCMYGNGKDYRGKTAVTAAGTPCQGWAAQEPHRHSIFTPQTNPRAGLEKNYCRNPDGDVNGPWCYTTNPRKLYDYCDIPLCASASSFECGKPQVEPKKCPGRVVGGCVANPHSWPWQISLRTRFTGQHFCGGTLIAPEWVLTAAHCLEKSSRPEFYKVILGAHEEYIRGLDVQEISVAKLILEPNNRDIALLKLSRPATITDKVIPACLPSPNYMVADRTICYITGWGETQGTFGAGRLKEAQLPVIENKVCNRVEYLNNRVKSTELCAGQLAGGVDSCQGDSGGPLVCFEKDKYILQGVTSWGLGCARPNKPGVYVRVSRFVDWIEREMRNN
With B1, the “plasmin activity in brain slices (D-VLK chromogenic plasmin substrate assay)” value is “addition of the plasmin inhibitor α2-antiplasmin (Bajou et al., 2008) inhibited this activity”.
